Results on four molecules are retold here after PMC4690014, “Functional Analysis of Cotton Leaf Curl Kokhran Virus/Cotton Leaf Curl Multan Betasatellite RNA Silencing Suppressors”.

One series deals with TrAP (Trx-His fusion) (Cotton leaf curl Kokhran virus, UniProt O72711 1-134). As to the kind of experiment: EMSA. The settings on record: protein: recombinant; tags: N-terminal Trx-His (pET32a); label: 5'-32P.
The target of the next series is V2 (Trx-His fusion) (Cotton leaf curl Kokhran virus, UniProt Q6JIB8 1-118). The series is described as follows: EMSA. The settings on record: protein: recombinant; tags: N-terminal Trx-His (pET32a); label: 5'-32P.

For the molecule AGAGUGCCAUGCCCGAAGGUUAUU (ssRNA) [24 nt ssRNA], the binding result with TrAP (Trx-His fusion) is “binds”.

B1: 69 nt ssDNA (SalI-XbaI-HA-Tag oligo, by length) (ssDNA)
DNA: GCGTCGACGTCTTGCTCTAGAGATGTATCCATATGATGTTCCGGATTACGCGGAACGAGCTATACAAGG
Take B1: the binding result with TrAP (Trx-His fusion) and with V2 (Trx-His fusion) was “binds” each time.

As for AGAGUGCCAUGCCCGAAGGUU (ssRNA) [21 nt ssRNA], the binding result with TrAP (Trx-His fusion) was “binds”.

In the case of AGAGTGCCATGCCCGAAGGTT (ssDNA) [21 nt ssDNA], the binding result with TrAP (Trx-His fusion) was “binds”.
